“And” between values parts separate entries of the source, which are not always exact repeats. Equal values may be shown once.
Molecular target: Slr0058 protein from Synechocystis sp. PCC 6803, His-tagged (Synechocystis sp. PCC 6803)
Experiment: SEC; Superose 6 Increase 10/300 GL on ÄKTAmicro; 100 mM KCl, 50 mM Tris-HCl pH 7.8, 5 mM MgCl2; 100 µl of Slr0058 at 0.313 mg/ml

stoichiometry N: 2 and 3
Substance: Slr0058 protein from Synechocystis sp. PCC 6803, His-tagged (natural protein)

Source: PMC7203880
